Source: patent publication US20250144222A1, “Bifunctional Compounds Targeting the Cation-Independent Mannose 6- Phosphate Receptor” (NANOMEDSYN, priority 2022, published 2025)

Experiments:
b-CI-M6PR = target: T1, b-CI-M6PR (UniProt P08169); test: Competitive binding of biotinylated CI-M6PR to adsorbed pentamannose 6-phosphate; details: competitive assay with pentamannose 6-phosphate ligand; read-out: Affinity for b-CI-M6PR (IC50) (converted)
T1 construct: fused on or other part: Chemical biotin label (biotin N-hydroxysuccinimide) for streptavidin-peroxidase detection; no fused protein
Experimental: Briefly, CI-M6PR, purified on a phosphomannane-sepharose affinity column, was biotinylated with biotin N-hydroxysuccinimide. […] The b-CI-M6PR bound to adsorbed PMP was then determined using streptavidin conjugated to the peroxidase and its substrate, o-phenylenediamine dihydrochloride (OPD), by optical density measurements. The 100% value corresponds to the concentration of b-CI-M6PR bound to PMP adsorbed in the absence of a competitor.

[1] = Pharmacokinetic profile in mice after single i.v. bolus; format: in vivo, C57BL/6J mice; details: single i.v. bolus 4 mg/kg, 21 days
Experimental: Mice were weighed before injection and throughout the experiment to monitor their health. Blood samples taken at 4 and 1, 2, 3, 7, 10, 14, 17 and 21 days post-injection were collected in tubes containing heparin and centrifuged at 3,000 g for 15 min, and the plasma was stored at −20° C. until measurement. Mice were sacrificed 21 days after injection.
The therapeutic antibody was detected using an HRP-conjugated anti-human IgG antibody specific for the Fc fragment, which was then quantified by a colorimetric assay with the OPD substrate and absorbance measure at 450 nm.

IC50 (b-CI-M6PR) | Compound | adverse clinical events [1]
20 µM | O=C[C@@H](O)[C@@H](O)[C@H](O)[C@H](O)COP(=O)(O)O [M6P, mannose 6-phosphate] | 
 | adalimumab [mAb2, reference compound] | No adverse clinical events
 | infliximab [mAb1, reference compound] | No adverse clinical events
